Assay results published in patent publication US20250082755A1.

Target: CD123 expressed on MOLM13 AML cells (UniProt P26951)
Experiment: cell-based or functional assay

Sequence of UniProt P26951 (P26951 19-378 limits assumed): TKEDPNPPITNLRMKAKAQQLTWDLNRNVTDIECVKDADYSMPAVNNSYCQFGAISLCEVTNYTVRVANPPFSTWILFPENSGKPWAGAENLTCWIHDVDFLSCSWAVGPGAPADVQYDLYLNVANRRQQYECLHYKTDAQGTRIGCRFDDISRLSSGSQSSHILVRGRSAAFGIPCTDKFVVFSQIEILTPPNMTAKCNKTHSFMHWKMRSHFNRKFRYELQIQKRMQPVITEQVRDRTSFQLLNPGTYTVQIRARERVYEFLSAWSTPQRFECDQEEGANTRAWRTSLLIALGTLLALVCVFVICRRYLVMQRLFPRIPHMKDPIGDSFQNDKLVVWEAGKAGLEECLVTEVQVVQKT

CD69 activation, Average MOLM13-WT fold change over MOLM-CD123KO [fold]	CD69 activation, MOLM13 fold change over MOLM-CD123KO, Replicate 1 [fold]	CD69 activation, MOLM13 fold change over MOLM-CD123KO, Replicate 2 [fold]	TIB153 % CD69 activation: MOLM-13-WT/MOLM-13 CD123KO	Substance
3.84	4.74	2.94	4.74	IL3-WT-41BBcostim (SEQ ID NO: 25) (receptor)
–	–	–	1.06	IL3-K110E-nocostim (SEQ ID NO: 27) (receptor)
–	–	–	1.28	IL3-K110E-41BBcostim (receptor)
–	–	–	1.03	IL3-K110E-CD28costim (SEQ ID NO: 29) (receptor)
